We go through four variants from IntAct's records for PubMed 22187462.

B1: Catenin beta-1 (Homo sapiens), P35222 (parent)
chain: MATQADLMELDMAMEPDRKAAVSHWQQQSYLDSGIHSGATTTAPSLSGKGNPEEEDVDTSQVLYEWEQGFSQSFTQEQVADIDGQYAMTRAQRVRAAMFPETLDEGMQIPSTQFDAAHPTNVQRLAEPSQMLKHAVVNLINYQDDAELATRAIPELTKLLNDEDQVVVNKAAVMVHQLSKKEASRHAIMRSPQMVSAIVRTMQNTNDVETARCTAGTLHNLSHHREGLLAIFKSGGIPALVKMLGSPVDSVLFYAITTLHNLLLHQEGAKMAVRLAGGLQKMVALLNKTNVKFLAITTDCLQILAYGNQESKLIILASGGPQALVNIMRTYTYEKLLWTTSRVLKVLSVCSSNKPAIVEAGGMQALGLHLTDPSQRLVQNCLWTLRNLSDAATKQEGMEGLLGTLVQLLGSDDINVVTCAAGILSNLTCNNYKNKMMVCQVGGIEALVRTVLRAGDREDITEPAICALRHLTSRHQEAEMAQNAVRLHYGLPVVVKLLHPPSHWPLIKATVGLIRNLALCPANHAPLREQGAIPRLVQLLVRAHQDTQRRTSMGGTQQQFVEGVRMEEIVEGCTGALHILARDVHNRIVIRGLNTIPLFVQLLYSPIENIQRVAAGVLCELAQDKEAAEAIEAEGATAPLTELLHSRNEGVATYAAAVLFRMSEDKPQDYKKRLSVELTSSLFRTEPMAWNETADLGLDIGAQGEPLGYRQDDPSYRSFHSGGYGQDALGMDPMMEHEMGGHHPGADYPVDGLPDLGHAQDLMDGLPPGDSNQLAWFDTDL

The variants in the first experiment derive from B1. The following applies: with andr_human AR.
In the case of K345A, the “effect of a mutation on the interaction” value was “disrupting interaction strength”.
Take Y306A: the “effect of a mutation on the interaction” value was “disrupting interaction strength”.
Still for that read-out and setting: to W383A belongs “disrupting interaction strength”; to Y306A;K345A;W383A, “disrupting interaction strength”.

In a further experiment the parent is B1. To be noted: with NR5A2, O00482-1.
NR5A2, O00482-1, sequence (O00482 whole entry): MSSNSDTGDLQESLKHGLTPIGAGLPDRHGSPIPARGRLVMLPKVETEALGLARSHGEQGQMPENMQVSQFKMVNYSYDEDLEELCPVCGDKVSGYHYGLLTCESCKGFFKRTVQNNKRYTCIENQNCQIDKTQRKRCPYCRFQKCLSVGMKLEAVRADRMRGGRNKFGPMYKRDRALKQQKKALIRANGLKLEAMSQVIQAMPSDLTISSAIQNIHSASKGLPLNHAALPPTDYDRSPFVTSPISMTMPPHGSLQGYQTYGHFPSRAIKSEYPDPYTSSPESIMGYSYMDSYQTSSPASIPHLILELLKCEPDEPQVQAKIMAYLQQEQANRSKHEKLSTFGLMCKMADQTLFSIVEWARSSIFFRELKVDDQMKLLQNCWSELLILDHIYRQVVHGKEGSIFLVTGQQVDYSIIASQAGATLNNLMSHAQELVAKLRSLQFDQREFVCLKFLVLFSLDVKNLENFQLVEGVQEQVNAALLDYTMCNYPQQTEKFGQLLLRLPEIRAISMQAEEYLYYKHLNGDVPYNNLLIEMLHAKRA
Turning to Y306A;K345A;W383A, the “effect of a mutation on the interaction” value was “disrupting interaction strength”.
